Reference: patent US20150344570A1 (published 2015)
Positions count from the first letter of the chain named. Numbers in names are those of the source.

B1: H240-Kn120/H240-Hl068/L73-k0 (antibody, human IgG1, kappa)
heavy 1: QDQLVQSGAEVKKPGASVKVSCKASGFNIKDTYIQWVRQAPGQGLEWMGRIDPLRKQTKYREKFEGRVTITADTSTNTAYMELSSLRSEDTAVYYCVRSGREFDYWGQGTLVTVSSASTKGPSVFPLAPSSKSTSGGTAALGCLVKDYFPEPVTVSWNSGALTSGVHTFPAVLQSSGLYSLSSVVTVPSSSLGTQTYICNVNHKPSNTKVDKKVEPKSCDKTHTCPPCPAPEYYWGPMVFLFPPKPKDTLMISRTPEVTCVVVDVSDEDPEVKFNWYVDGVEVHNAKTKPREEQYNATYRVVSVLTVLHQDWLNGKEYKCKVSNKDLPAPIEKTISKAKGQPREPQVCTLPPSRDELTKNQVSLWCLVKGFYPSDIAVEWESNGQPENNYKTTPPVLDSDGSFFLYSKLTVDKSRWQQGNVFSCSVMHEALHNHYTQKSLSLSP
heavy 2: QDQLVQSGAEVKKPGASVKVSCKASGFNIKDTYIQWVRQAPGQGLEWMGRIDPLRKQTKYREKFEGRVTITADTSTNTAYMELSSLRSEDTAVYYCVRSGREFDYWGQGTLVTVSSASTKGPSVFPLAPSSKSTSGGTAALGCLVKDYFPEPVTVSWNSGALTSGVHTFPAVLQSSGLYSLSSVVTVPSSSLGTQTYICNVNHKPSNTKVDKKVEPKSCDKTHTCPPCPAPELLGGPSVFLFPPKPKDTLMISRTPEVTCVVVDVSHEEPEVKFNWYVDGVEVHNAKTKPREEQYNSTYRVVSVLTVLHQDWLNGKEYKCKVSNDALPKPIEETISKAKGQPREPQVYTLPPSRCELTKNQVSLSCAVKGFYPSDIAVEWESNGQPENNYKTTPPVLDSDGSFFLVSKLTVDKSRWQQGNVFSCSVMHEALHNHYTQKSLSLSP
light: DIQMTQSPSSLSASVGDRVTITCRASQDIHKYIAWYQQKPGQAPRLLIQYTSTLQPGVPSRFSGSGSGTDYTFTISSLQPEDIATYYCLQYEQLRTFGGGTKVEIKRTVAAPSVFIFPPSDEQLKSGTASVVCLLNNFYPREAKVQWKVDNALQSGNSQESVTEQDSKDSTYSLSSTLTLSKADYEKHKVYACEVTHQGLSSPVTKSFNRGEC
notes: Heterodimerized (knobs-into-holes) anti-epiregulin IgG1 antibody; also called H240-Kn120/H240-HI068/L73-k0
B2: H240-Kn120/H240-Hl089/L73-k0 (antibody, human IgG1, kappa)
heavy 1: B1 heavy 1
heavy 2: B1 heavy 2 with G235T
light: B1 light
notes: also called H240-Kn120/H240-HI089/L73-k0
B3: H240-Kn179/H240-Hl068/L73-k0 (antibody, human IgG1, kappa)
heavy 1: B1 heavy 1 with E293K
heavy 2: B1 heavy 2
light: B1 light
notes: also called H240-Kn179/H240-HI068/L73-k0
B4: H240-Kn180/H240-Hl068/L73-k0 (antibody, human IgG1, kappa)
heavy 1: B1 heavy 1 with E293R
heavy 2: B1 heavy 2
light: B1 light
notes: also called H240-Kn180/H240-HI068/L73-k0
B5: GpH7-A48/GpH7-B3-01-15Y/GpL16-k0 (antibody, human IgG1, kappa)
heavy 1: QVQLVQSGAEVKKPGASVTVSCKASGYTFTDYEMHWIRQPPGEGLEWIGAIDPKTGDTAYSESFQDRVTLTADKSTSTAYMELSSLTSEDTAVYYCTRFYSYTYWGQGTLVTVSSASTKGPSVFPLAPSSKSTSGGTAALGCLVKDYFPEPVTVSWNSGALTSGVHTFPAVLQSSGLYSLSSVVTVPSSSLGTQTYICNVNHKPSNTKVDKKVEPKSCDKTHTCPPCPAPELLGGPSVFLFPPKPKDTLMISRTPEVTCVVVDVSHEDPEVKFNWYVDGVEVHNAKTKPREEQYNSTYRVVSVLTVLHQDWLNGKEYKCKVSNKALRAPIEKTISKAKGQPREPQVYTLPPSRKELTKNQVSLTCLVKGFYPSDIAVEWESNGQPENNYKTTPPVLDSDGSFFLYSKLTVDKSRWQQGNVFSCSVMHEALHNRYTQKSLSLSP
heavy 2: not shown
light: DIVMTQSPLSLPVTPGEPASISCQASESLVHSNRNTYLHWYLQKPGQSPQLLIYKVSNRFSGVPDRFSGSGSGTDFTLKISRVEAEDVGVYYCSQNTHVPPTFGQGTKVEIERTVAAPSVFIFPPSDEQLKSGTASVVCLLNNFYPREAKVQWKVDNALQSGNSQESVTEQDSKDSTYSLSSTLTLSKADYEKHKVYACEVTHQGLSSPVTKSFNRGEC
notes: H1 P329R; H2 L234Y
B6: GpH7-A5/GpH7-HA5/GpL16-k0 (antibody, human IgG1, kappa)
heavy 1: not shown
heavy 2: B5 heavy 1 with L232Y, K354D, R433H, K437E
light: B5 light
notes: H2 L234Y and P329R
B7: GpH7-A48/GpH7-B3-03-20W/GpL16-k0 (antibody, human IgG1, kappa)
heavy 1: B5 heavy 1
heavy 2: not shown
light: B5 light
notes: H1 P329R; H2 G236W
B8: GpH7-A5/GpH7-HA6/GpL16-k0 (antibody, human IgG1, kappa)
heavy 1: not shown
heavy 2: B5 heavy 1 with G234W, K354D, R433H, K437E
light: B5 light
notes: H2 G236W and P329R
B9: GpH7-A48/GpH7-B3-15-02A/GpL16-k0 (antibody, human IgG1, kappa)
heavy 1: B5 heavy 1
heavy 2: not shown
light: B5 light
notes: H1 P329R; H2 S298A
B10: GpH7-A5/GpH7-HA11/GpL16-k0 (antibody, human IgG1, kappa)
heavy 1: not shown
heavy 2: B5 heavy 1 with S296A, K354D, R433H, K437E
light: B5 light
notes: H2 S298A and P329R

These binders were tested against T1, FcgRIIb extracellular domain, C-terminal His tag (human, UniProt P31994 43-217) (assay: SPR (Biacore); KD of H240-Kn120/H240-Hl068/L73-k0 divided by KD of the variant).
T1 construct: extracellular domain; Soluble analyte in Biacore; also called FcγRIIb; not shown: His tag at the C terminus
T1 sequence (looked up): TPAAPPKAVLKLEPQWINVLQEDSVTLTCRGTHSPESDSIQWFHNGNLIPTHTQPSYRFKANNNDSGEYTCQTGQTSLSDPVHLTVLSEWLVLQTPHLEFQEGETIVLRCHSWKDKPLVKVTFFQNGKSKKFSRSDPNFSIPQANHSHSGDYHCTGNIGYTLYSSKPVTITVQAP
Protocol: (§1) H240-Kn179/H240-H1089/L73-k0, H240-Kn180/H240-Hl089/L73-k0, H240-Kn192/H240-Hl204/L73-k0, and H240-Kn193/H240-Hl204/L73-k0 were prepared by combining each of H240-Kn192 and H240-Kn193 as an H chain, L73-k0 as the L chain, and H240-Hl089 and H240-Hl204 as the other H chain according to the method described in Reference Example 1. The variants described above were assessed for their binding to FcγR according to the method described in Reference Example 8.
(§2) Analysis of interaction between objective antibody and the FcγR was carried out using Biacore T100 (GE Healthcare), Biacore T200, Biacore A100, and Biacore 4000. HBS-EP+ (GE Healthcare) was used as the running buffer, and the measurement temperature was set to 25° C. Chips produced by immobilizing the antigen peptide by the amine coupling method to a Series S sensor Chip CM5 (GE Healthcare), chips produced by allowing preliminarily biotinylated antigen peptides to interact with and immobilize onto a Series S Sensor Chip SA (certified) (GE Healthcare), chips produced by immobilizing Protein L (ACTIGEN, BioVision) to Series S Sencor Chip CM5 (GE Healthcare), or chips produced by immobilizing Protein A/G (Thermo Scientific) to Series S Sencor Chip CM5 (GE Healthcare) were used. Antibodies of interest were captured onto these chips, and allowed to interact to each FcγR diluted with running buffer. To regenerate and repeatedly use the chip, the antibodies captured onto the chip were washed off by reacting 10 mM glycine-HCl, pH 1.5.

Row | Binder | relative KD
1 | B1 | 1
2 | B2 | 0.8
3 | B3 | 0.6
4 | B4 | 0.6

Each binder was assayed against T2, FcgRIIIa F type extracellular domain, C-terminal His tag (human, UniProt P08637 17-208) in the same assay as above.
T2 construct: extracellular domain; Soluble analyte in Biacore; also called FcγRIIIa F; not shown: His tag at the C terminus
Protocol: as §1, §2

T2 sequence (P08637 17-208): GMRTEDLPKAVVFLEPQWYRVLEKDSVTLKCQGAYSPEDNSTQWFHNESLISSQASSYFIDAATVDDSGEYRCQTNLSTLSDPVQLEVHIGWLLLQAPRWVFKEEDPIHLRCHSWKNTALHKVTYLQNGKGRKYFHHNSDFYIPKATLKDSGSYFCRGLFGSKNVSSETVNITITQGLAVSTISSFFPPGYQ

Row | Binder | relative KD
5 | B1 | 1
6 | B2 | 0.2
7 | B3 | 0.5
8 | B4 | 0.7

What follows are binders tested against T3, FcgRIIa H type extracellular domain, C-terminal His tag (human, UniProt P12318 34-217) in the same assay as above.
T3 construct: extracellular domain; Soluble analyte in Biacore; also called FcγRIIa H; FcγRIIa(H); not shown: His tag at the C terminus
T3 sequence (looked up): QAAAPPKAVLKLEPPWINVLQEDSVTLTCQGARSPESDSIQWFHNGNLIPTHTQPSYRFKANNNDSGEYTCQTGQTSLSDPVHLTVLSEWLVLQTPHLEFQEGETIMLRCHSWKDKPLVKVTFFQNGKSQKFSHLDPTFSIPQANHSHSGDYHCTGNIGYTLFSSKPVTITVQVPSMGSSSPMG
Protocol: as §1, §2

Row | Binder | relative KD
9 | B1 | 1
10 | B2 | 1
11 | B3 | 1
12 | B4 | 1.2

These binders were tested against T4, FcgRIIa R type extracellular domain, C-terminal His tag (human, UniProt P12318 34-217) in the same assay as above.
T4 construct: extracellular domain; Soluble analyte in Biacore; also called FcγRIIa R; FcγRIIa(R); not shown: His tag at the C terminus
T4 sequence (looked up): T3 sequence (looked up) with H134R
Protocol: as §1, §2

Row | Binder | relative KD
13 | B1 | 1
14 | B2 | 1.4
15 | B3 | 0.8
16 | B4 | 1

These binders were tested against T5, FcgRIIIa V type extracellular domain, C-terminal His tag (human, UniProt P08637 17-208) in the same assay as above.
T5 construct: extracellular domain; Soluble analyte in Biacore; also called FcγRIIIa V; not shown: His tag at the C terminus
Protocol: as §1, §2

T5 sequence (P08637 17-208 F176V): as the sequence (P08637 17-208) above, with F160V counted along it

Row | Binder | relative KD
17 | B1 | 1
18 | B2 | 0.1
19 | B3 | 0.4
20 | B4 | 0.5

Molecular target: T1, FcgRIIb extracellular domain, …
Assay: as above
Remark: another data set of the same source
Protocol: as §2

Row | Binder | relative KD
21 | B1 | 1
22 | B2 | 0.8
23 | B3 | 0.6
24 | B4 | 0.6

Molecular target: T2, FcgRIIIa F type extracellular domain, …
Assay: as above
Remark: another data set of the same source
Protocol: as §2

Row | Binder | relative KD
25 | B1 | 1
26 | B2 | 0.2
27 | B3 | 0.5
28 | B4 | 0.7

Molecular target: T3, FcgRIIa H type extracellular domain, …
Assay: as above
Remark: another data set of the same source
Protocol: as §2

Row | Binder | relative KD
29 | B1 | 1
30 | B2 | 1
31 | B3 | 1
32 | B4 | 1.2

Molecular target: T4, FcgRIIa R type extracellular domain, …
Assay: as above
Remark: another data set of the same source
Protocol: as §2

Row | Binder | relative KD
33 | B1 | 1
34 | B2 | 1.4
35 | B3 | 0.8
36 | B4 | 1

Molecular target: T5, FcgRIIIa V type extracellular domain, …
Assay: as above
Remark: another data set of the same source
Protocol: as §2

Row | Binder | relative KD
37 | B1 | 1
38 | B2 | 0.1
39 | B3 | 0.4
40 | B4 | 0.5

What follows are binders tested against FcγRIIIa extracellular domain with C-terminal His tag (human, UniProt P08637 17-208) (assay: SPR (Biacore), relative binding activity; GpH7-A5/GpH7-B3/GpL16-k0 = 100).
FcγRIIIa extracellular domain with C-terminal His tag, sequence (P08637 17-208): as the sequence (P08637 17-208) above

Row | Binder | FcγRIIIa BINDING ACTIVITY
41 | B5 | 11%
42 | B6 | 60%
43 | B7 | 13%
44 | B8 | 56%
45 | B9 | 47%
46 | B10 | 84%
